11 molecules from US20250084142A1 (INTARCIA THERAPEUTICS, published 2025) can be followed below.

Starred links: 1 amine or outer side, 2 acyl side, 3 side chain; linkers in the order of their positions; H or OH if unused. Non-standard residues stand in square brackets, D forms with d. Groups on a side chain read outwards from the residue. No end group written: not given here. *: point of attachment. dpeg = —[CO(CH2)O(CH2)2O(CH2)NH]— spacer, O=C(COCCOCN[*:1])[*:2]; C20 diacid = O=C(O)CCCCCCCCCCCCCCCCCCC(=O)*; γGlu = O=C(O)[C@H](CCC(=O)[*:2])N[*:1]

T1: NPY2R
T1 sequence (P49146 1-381, species assumed, looked up): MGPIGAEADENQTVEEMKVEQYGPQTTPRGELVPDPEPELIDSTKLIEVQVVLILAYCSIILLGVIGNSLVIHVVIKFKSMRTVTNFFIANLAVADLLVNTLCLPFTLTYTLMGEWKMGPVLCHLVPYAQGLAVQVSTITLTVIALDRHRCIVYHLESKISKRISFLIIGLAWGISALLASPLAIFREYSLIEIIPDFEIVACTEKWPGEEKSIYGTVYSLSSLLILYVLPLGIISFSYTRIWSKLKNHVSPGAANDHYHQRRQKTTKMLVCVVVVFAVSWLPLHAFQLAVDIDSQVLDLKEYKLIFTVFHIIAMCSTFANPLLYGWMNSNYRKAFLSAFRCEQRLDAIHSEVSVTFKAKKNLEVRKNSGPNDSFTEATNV

T2: NPY5R
T2 sequence (Q15761 1-445, species assumed, looked up): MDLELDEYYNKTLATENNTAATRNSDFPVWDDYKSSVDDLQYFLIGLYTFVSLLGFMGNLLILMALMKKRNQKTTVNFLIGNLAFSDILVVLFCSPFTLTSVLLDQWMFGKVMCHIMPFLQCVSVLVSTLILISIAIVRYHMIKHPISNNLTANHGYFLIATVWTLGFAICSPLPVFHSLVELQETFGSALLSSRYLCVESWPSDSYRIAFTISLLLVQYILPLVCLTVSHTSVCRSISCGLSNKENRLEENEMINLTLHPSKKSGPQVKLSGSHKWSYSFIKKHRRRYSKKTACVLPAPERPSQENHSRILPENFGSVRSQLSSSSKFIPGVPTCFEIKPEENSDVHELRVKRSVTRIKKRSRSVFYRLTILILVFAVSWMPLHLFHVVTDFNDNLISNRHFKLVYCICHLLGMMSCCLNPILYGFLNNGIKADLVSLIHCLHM

B1: Compound A16 (peptide)
peptide: PKPEAPGKDASPEEWNRYYK([γGlu-dpeg-dpeg-γGlu-C20 diacid])DLRHYLNWLTRQRF-NH2
B2: Compound A25 (peptide)
peptide: PKPEAPGK([γGlu-γGlu-C20 diacid])DASPEEWSRYYKDLRHYLNWLTRQRF-NH2
B3: Compound A26 (peptide)
peptide: PKPEAPGK([γGlu-γGlu-C20 diacid])DASPEEWTRYYKDLRHYLNWLTRQRF-NH2
B4: Compound A23 (peptide)
peptide: PKPEAPGK([γGlu-γGlu-C20 diacid])DASPEEWQRYYKDLRHYLNWLTRQRF-NH2
B5: Compound A20 (peptide)
peptide: PKPEAPGK([γGlu-γGlu-C20 diacid])DASPKEWNRYYKDLRHYLNWLTRQRF-NH2
B6: Compound A17 (peptide)
peptide: PKPEAPGK([γGlu-dpeg-dpeg-γGlu-C20 diacid])DASPEEWNRYYADLRHYLNWLTRQRF-NH2
modifications: N-terminus assumed
SMILES: CC(C)C[C@H](NC(=O)[C@H](CC(=O)O)NC(=O)[C@H](C)NC(=O)[C@H](Cc1ccc(O)cc1)NC(=O)[C@H](Cc1ccc(O)cc1)NC(=O)[C@H](CCCNC(=N)N)NC(=O)[C@H](CC(N)=O)NC(=O)[C@H](Cc1c[nH]c2ccccc12)NC(=O)[C@H](CCC(=O)O)NC(=O)[C@H](CCC(=O)O)NC(=O)[C@@H]1CCCN1C(=O)[C@H](CO)NC(=O)[C@H](C)NC(=O)[C@H](CC(=O)O)NC(=O)[C@H](CCCCNC(=O)CC[C@H](NC(=O)COCCOCNC(=O)COCCOCNC(=O)CC[C@H](NC(=O)CCCCCCCCCCCCCCCCCCC(=O)O)C(=O)O)C(=O)O)NC(=O)CNC(=O)[C@@H]1CCCN1C(=O)[C@H](C)NC(=O)[C@H](CCC(=O)O)NC(=O)[C@@H]1CCCN1C(=O)[C@H](CCCCN)NC(=O)[C@@H]1CCCN1)C(=O)N[C@@H](CCCNC(=N)N)C(=O)N[C@@H](Cc1c[nH]cn1)C(=O)N[C@@H](Cc1ccc(O)cc1)C(=O)N[C@@H](CC(C)C)C(=O)N[C@@H](CC(N)=O)C(=O)N[C@@H](Cc1c[nH]c2ccccc12)C(=O)N[C@@H](CC(C)C)C(=O)N[C@H](C(=O)N[C@@H](CCCNC(=N)N)C(=O)N[C@@H](CCC(N)=O)C(=O)N[C@@H](CCCNC(=N)N)C(=O)N[C@@H](Cc1ccccc1)C(N)=O)[C@@H](C)O
B7: Compound A21 (peptide)
peptide: PKPEAPGK([γGlu-γGlu-C20 diacid])DASPEEWNRYY[dK]DLRHYLNWLTRQRF-NH2
B8: Compound A18 (peptide)
peptide: PKPEAPG[dK]([γGlu-dpeg-dpeg-γGlu-C20 diacid])DASPEEWNRYYADLRHYLNWLTRQRF-NH2
modifications: N-terminus assumed
SMILES: CC(C)C[C@H](NC(=O)[C@H](CC(=O)O)NC(=O)[C@H](C)NC(=O)[C@H](Cc1ccc(O)cc1)NC(=O)[C@H](Cc1ccc(O)cc1)NC(=O)[C@H](CCCNC(=N)N)NC(=O)[C@H](CC(N)=O)NC(=O)[C@H](Cc1c[nH]c2ccccc12)NC(=O)[C@H](CCC(=O)O)NC(=O)[C@H](CCC(=O)O)NC(=O)[C@@H]1CCCN1C(=O)[C@H](CO)NC(=O)[C@H](C)NC(=O)[C@H](CC(=O)O)NC(=O)[C@@H](CCCCNC(=O)CC[C@H](NC(=O)COCCOCNC(=O)COCCOCNC(=O)CC[C@H](NC(=O)CCCCCCCCCCCCCCCCCCC(=O)O)C(=O)O)C(=O)O)NC(=O)CNC(=O)[C@@H]1CCCN1C(=O)[C@H](C)NC(=O)[C@H](CCC(=O)O)NC(=O)[C@@H]1CCCN1C(=O)[C@H](CCCCN)NC(=O)[C@@H]1CCCN1)C(=O)N[C@@H](CCCNC(=N)N)C(=O)N[C@@H](Cc1c[nH]cn1)C(=O)N[C@@H](Cc1ccc(O)cc1)C(=O)N[C@@H](CC(C)C)C(=O)N[C@@H](CC(N)=O)C(=O)N[C@@H](Cc1c[nH]c2ccccc12)C(=O)N[C@@H](CC(C)C)C(=O)N[C@H](C(=O)N[C@@H](CCCNC(=N)N)C(=O)N[C@@H](CCC(N)=O)C(=O)N[C@@H](CCCNC(=N)N)C(=O)N[C@@H](Cc1ccccc1)C(N)=O)[C@@H](C)O
B9: Compound A15 (peptide)
peptide: PKPEAPG[dK]([γGlu-γGlu-C20 diacid])DASPEEWNRYYADLRHYLNWLTRQRF-NH2
B10: Compound A27 (peptide)
peptide: PKPEKPGK([γGlu-γGlu-C20 diacid])DASPKEWNRYYKDLRHYLNWLTRQRF-NH2
modifications: N-terminus assumed
SMILES: CC(C)C[C@H](NC(=O)[C@H](CC(=O)O)NC(=O)[C@H](CCCCN)NC(=O)[C@H](Cc1ccc(O)cc1)NC(=O)[C@H](Cc1ccc(O)cc1)NC(=O)[C@H](CCCNC(=N)N)NC(=O)[C@H](CC(N)=O)NC(=O)[C@H](Cc1c[nH]c2ccccc12)NC(=O)[C@H](CCC(=O)O)NC(=O)[C@H](CCCCN)NC(=O)[C@@H]1CCCN1C(=O)[C@H](CO)NC(=O)[C@H](C)NC(=O)[C@H](CC(=O)O)NC(=O)[C@H](CCCCNC(=O)CC[C@H](NC(=O)CC[C@H](NC(=O)CCCCCCCCCCCCCCCCCCC(=O)O)C(=O)O)C(=O)O)NC(=O)CNC(=O)[C@@H]1CCCN1C(=O)[C@H](CCCCN)NC(=O)[C@H](CCC(=O)O)NC(=O)[C@@H]1CCCN1C(=O)[C@H](CCCCN)NC(=O)[C@@H]1CCCN1)C(=O)N[C@@H](CCCNC(=N)N)C(=O)N[C@@H](Cc1c[nH]cn1)C(=O)N[C@@H](Cc1ccc(O)cc1)C(=O)N[C@@H](CC(C)C)C(=O)N[C@@H](CC(N)=O)C(=O)N[C@@H](Cc1c[nH]c2ccccc12)C(=O)N[C@@H](CC(C)C)C(=O)N[C@H](C(=O)N[C@@H](CCCNC(=N)N)C(=O)N[C@@H](CCC(N)=O)C(=O)N[C@@H](CCCNC(=N)N)C(=O)N[C@@H](Cc1ccccc1)C(N)=O)[C@@H](C)O
B11: Compound A24 (peptide)
peptide: PKPEAPGK([γGlu-γGlu-C20 diacid])DASPEEWDRYYKDLRHYLNWLTRQRF-NH2

The target of the first assay is T1, NPY2R. Briefly: cell-based or functional assay.
With B1, the “NPY2R pEC50” value was 10.2 -Log(EC50, M).

Consider B2, for which the “NPY2R pEC50” value was 10.9 -Log(EC50, M).

In the case of B3, the “NPY2R pEC50” value was 10.7 -Log(EC50, M).

B4: the “NPY2R pEC50” value is 10.4 -Log(EC50, M).

Regarding B5, the “NPY2R pEC50” value is 10.5 -Log(EC50, M).

As for B6, the “NPY2R pEC50” value is 10.2 -Log(EC50, M).

With B7, the “NPY2R pEC50” value was 10.4 -Log(EC50, M).

Turning to B8, the “NPY2R pEC50” value was 10.3 -Log(EC50, M).

Regarding B9, the “NPY2R pEC50” value is 10.2 -Log(EC50, M).

For the molecule B10, the “NPY2R pEC50” value is 10.7 -Log(EC50, M).

Take B11: the “NPY2R pEC50” value is 10.5 -Log(EC50, M).

The target in the next assay is T2, NPY5R. Briefly: cell-based or functional assay.
On to B1, for which the “NPY5R pEC50” value was 9.1 -Log(EC50, M).

Regarding B2, the “NPY5R pEC50” value is 8.4 -Log(EC50, M).

Take B3: the “NPY5R pEC50” value was 8.5 -Log(EC50, M).

In the case of B4, the “NPY5R pEC50” value was 8.6 -Log(EC50, M).

B5: the “NPY5R pEC50” value was 8.7 -Log(EC50, M).

As for B6, the “NPY5R pEC50” value is 8.7 -Log(EC50, M).

For B7, the “NPY5R pEC50” value is 8.3 -Log(EC50, M).

For the molecule B8, the “NPY5R pEC50” value was 9.3 -Log(EC50, M).

On to B9, for which the “NPY5R pEC50” value was 8 -Log(EC50, M).

For B10, the “NPY5R pEC50” value was 8.9 -Log(EC50, M).

As to B11, the “NPY5R pEC50” value is 8.7 -Log(EC50, M).
